Reference: paper PMC12658125, “Oligomerisation of Ku from Mycobacterium tuberculosis promotes DNA synapsis” (Nature Communications, 2025)

Key:
[1] = target: the molecule itself; assay: cryo-EM structure; apo Ku-Mtb without DNA; 20 mM Tris-HCl pH 8, 75 mM NaCl, 5 mM MgCl2, 2 mM DTT, 8 mM CHAPSO; C2 symmetry imposed; step: protomers to homodimer
[2] = target: the molecule itself; assay: cryo-EM micrographs and 2D class averages
Ku-Mtb L13A/V14A = target: T1, Ku-Mtb L13A/V14A (Mycobacterium tuberculosis, UniProt P9WKD9 1-273, L13A;V14A); assay: cryo-EM; conditions: protein: recombinant; tags: His (Ni-NTA purified); chain copies: 2; label: 5' FAM on strand 1; 3' overhang 20 nt on strand 1
T1 sequence: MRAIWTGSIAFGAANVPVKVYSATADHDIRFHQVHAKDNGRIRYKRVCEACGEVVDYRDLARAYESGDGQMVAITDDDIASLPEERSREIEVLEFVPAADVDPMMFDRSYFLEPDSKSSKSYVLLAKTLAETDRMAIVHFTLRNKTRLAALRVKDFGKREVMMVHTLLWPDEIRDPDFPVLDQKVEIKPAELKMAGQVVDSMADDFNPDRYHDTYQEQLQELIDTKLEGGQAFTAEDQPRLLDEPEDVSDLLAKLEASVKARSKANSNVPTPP

B1: Ku protein from Mycobacterium tuberculosis, wild type (natural protein)
chain: MRAIWTGSIAFGLVNVPVKVYSATADHDIRFHQVHAKDNGRIRYKRVCEACGEVVDYRDLARAYESGDGQMVAITDDDIASLPEERSREIEVLEFVPAADVDPMMFDRSYFLEPDSKSSKSYVLLAKTLAETDRMAIVHFTLRNKTRLAALRVKDFGKREVMMVHTLLWPDEIRDPDFPVLDQKVEIKPAELKMAGQVVDSMADDFNPDRYHDTYQEQLQELIDTKLEGGQAFTAEDQPRLLDEPEDVSDLLAKLEASVKARSKANSNVPTPP
notes: also called Ku-Mtb; KuMtb
[1]
  stoichiometry N: 2

B2: Ku-Mtb S201A/Q197A double mutant (natural protein)
chain: MRAIWTGSIAFGLVNVPVKVYSATADHDIRFHQVHAKDNGRIRYKRVCEACGEVVDYRDLARAYESGDGQMVAITDDDIASLPEERSREIEVLEFVPAADVDPMMFDRSYFLEPDSKSSKSYVLLAKTLAETDRMAIVHFTLRNKTRLAALRVKDFGKREVMMVHTLLWPDEIRDPDFPVLDQKVEIKPAELKMAGAVVDAMADDFNPDRYHDTYQEQLQELIDTKLEGGQAFTAEDQPRLLDEPEDVSDLLAKLEASVKARSKANSNVPTPP
notes: source: over-expressed, purified
[2]
  binding result: binds

B3: FAM-DNA, 32 bp with 3' 20dT overhang (mixed)
DNA 1: GGAATGTAACCATCGTTGGTCGGCAGCAGGGCTTTTTTTTTTTTTTTTTTTT
DNA 2: GCCCTGCTGCCGACCAACGATGGTTACATTCC
Ku-Mtb L13A/V14A
  binding result: binds
